Results taken from patent US5871739.

Target: β-crystallin (containing about 10% βA3 -crystallin)
Assay: ELISA of mouse sera in the same manner as in Experimental Example 2; anti-crystallin antibody titer, control group
Conditions: scale: dilution ratio

antibody titer: 500
Substance: sera of control mice given PBS (Experimental Example 5) (polyclonal serum or antibody)
